# From the supplement of paper PMC9112550, “Optimization of the antimicrobial peptide Bac7 by deep mutational scanning” (BMC Biology, 2022)
# System: Escherichia coli TOP10
# Assay: shrunken log2 fold change of peptide-encoding DNA abundance (4.5 h post-induction vs induction); higher = less antimicrobial activity (less host growth inhibition)
# Conditions: time post-induction: 4.5 h; library: site-saturation at positions 5, 18, 19, 20
# 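Also: peptides expressed intracellularly from a pBAD plasmid library in pooled LB shake-flask culture, induced with 0.3% L-arabinose, DNA abundance read by NGS, three biological replicates, DESeq2 with apeglm shrinkage.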
row,Sequence,shrunken log2 fold change
1,RRIRFRPPRLPRPRPRPKYIPRP,-0.678
2,RRIRGRPPRLPRPRPRPVPTPRP,0.865
3,RRIRKRPPRLPRPRPRPNHTPRP,-0.213
4,RRIRLRPPRLPRPRPRPCNNPRP,-0.0778
5,RRIRVRPPRLPRPRPRPRITPRP,-0.11
6,RRIRQRPPRLPRPRPRPAANPRP,0.0666
7,RRIRPRPPRLPRPRPRPVFDPRP,0.342
8,RRIRSRPPRLPRPRPRPDCDPRP,0.152
9,RRIRKRPPRLPRPRPRPIIRPRP,-0.59
10,RRIRERPPRLPRPRPRPESRPRP,-0.0773
11,RRIRHRPPRLPRPRPRPNFYPRP,-0.515
12,RRIRARPPRLPRPRPRPVYHPRP,-0.321
13,RRIRSRPPRLPRPRPRPRGQPRP,0.197
14,RRIRDRPPRLPRPRPRPCSDPRP,0.0293
15,RRIRMRPPRLPRPRPRPAAYPRP,0.206
16,RRIRVRPPRLPRPRPRPWRWPRP,0.48
17,RRIRPRPPRLPRPRPRPHNCPRP,-0.111
18,RRIRYRPPRLPRPRPRPHTTPRP,-0.0318
19,RRIRRRPPRLPRPRPRPSLEPRP,0.232
20,RRIRARPPRLPRPRPRPNNCPRP,-0.466
21,RRIRPRPPRLPRPRPRPSSVPRP,0.0854
22,RRIRKRPPRLPRPRPRPLCMPRP,0.081
23,RRIRLRPPRLPRPRPRPNFQPRP,-0.0242
24,RRIRKRPPRLPRPRPRPMDWPRP,0.256
25,RRIRCRPPRLPRPRPRPFRSPRP,-0.142

row,Sequence,shrunken log2 fold change
1,RRIRYRPPRLPRPRPRPDWVPRP,-0.252
2,RRIRYRPPRLPRPRPRPDQYPRP,-0.292
3,RRIRTRPPRLPRPRPRPQLWPRP,-0.13
4,RRIRCRPPRLPRPRPRPTTTPRP,-0.0127
5,RRIRRRPPRLPRPRPRPYHWPRP,-0.48
6,RRIRFRPPRLPRPRPRPFNPPRP,-0.733
7,RRIRSRPPRLPRPRPRPNVPPRP,-0.131
8,RRIRRRPPRLPRPRPRPMDCPRP,0.00462
9,RRIRPRPPRLPRPRPRPVDYPRP,0.0307
10,RRIRYRPPRLPRPRPRPMAPPRP,0.025
11,RRIRPRPPRLPRPRPRPAESPRP,0.44
12,RRIRYRPPRLPRPRPRPWLTPRP,-0.558
13,RRIRGRPPRLPRPRPRPLHEPRP,0.74
14,RRIRARPPRLPRPRPRPPRYPRP,0.896
15,RRIRPRPPRLPRPRPRPIADPRP,0.0705
16,RRIRPRPPRLPRPRPRPWIPPRP,-0.225
17,RRIRSRPPRLPRPRPRPQYKPRP,-0.464
18,RRIRCRPPRLPRPRPRPCFYPRP,-0.675
19,RRIRIRPPRLPRPRPRPQCAPRP,-0.272
20,RRIRVRPPRLPRPRPRPTDMPRP,-0.234
21,RRIRMRPPRLPRPRPRPHRNPRP,-0.181
22,RRIRGRPPRLPRPRPRPGLMPRP,0.799
23,RRIRKRPPRLPRPRPRPFMTPRP,0.168
24,RRIRCRPPRLPRPRPRPDWLPRP,-0.0386
25,RRIRIRPPRLPRPRPRPPRMPRP,0.21

row,Sequence,shrunken log2 fold change
1,RRIRWRPPRLPRPRPRPLEYPRP,-0.152
2,RRIRTRPPRLPRPRPRPMPQPRP,-0.134
3,RRIRARPPRLPRPRPRPKLLPRP,0.00678
4,RRIRERPPRLPRPRPRPMALPRP,-0.0232
5,RRIRTRPPRLPRPRPRPCKHPRP,-0.0101
6,RRIRIRPPRLPRPRPRPFKRPRP,-0.446
7,RRIRCRPPRLPRPRPRPRPVPRP,0.766
8,RRIRVRPPRLPRPRPRPNSEPRP,-0.43
9,RRIRCRPPRLPRPRPRPEPTPRP,0.628
10,RRIRKRPPRLPRPRPRPYWPPRP,-0.000778
11,RRIRIRPPRLPRPRPRPNRAPRP,1.1
12,RRIRIRPPRLPRPRPRPMLHPRP,-0.749
13,RRIRTRPPRLPRPRPRPLLEPRP,0.024
14,RRIRIRPPRLPRPRPRPKDAPRP,0.176
15,RRIRVRPPRLPRPRPRPKNQPRP,-0.173
16,RRIRDRPPRLPRPRPRPYDIPRP,-0.00136
17,RRIRARPPRLPRPRPRPMQAPRP,-0.00917
18,RRIRKRPPRLPRPRPRPRKWPRP,0.448
19,RRIRARPPRLPRPRPRPGLYPRP,-0.077
20,RRIRYRPPRLPRPRPRPVNFPRP,0.00408
21,RRIRERPPRLPRPRPRPKEHPRP,-0.457
22,RRIRQRPPRLPRPRPRPNDTPRP,-0.752
23,RRIRPRPPRLPRPRPRPYMTPRP,-0.227
24,RRIRYRPPRLPRPRPRPIYCPRP,-0.15
25,RRIRWRPPRLPRPRPRPPSWPRP,1.32

row,Sequence,shrunken log2 fold change
1,RRIRKRPPRLPRPRPRPRKHPRP,0.328
2,RRIRPRPPRLPRPRPRPELFPRP,0.25
3,RRIRLRPPRLPRPRPRPIDLPRP,-0.0804
4,RRIRSRPPRLPRPRPRPSFMPRP,-0.335
5,RRIRERPPRLPRPRPRPWLGPRP,-0.247
6,RRIRNRPPRLPRPRPRPLSKPRP,-0.176
7,RRIRDRPPRLPRPRPRPVSMPRP,-0.0171
8,RRIRTRPPRLPRPRPRPLVRPRP,0.114
9,RRIRHRPPRLPRPRPRPCGQPRP,0.015
10,RRIRTRPPRLPRPRPRPWDAPRP,0.125
11,RRIRCRPPRLPRPRPRPRWLPRP,0.313
12,RRIRIRPPRLPRPRPRPLYCPRP,-0.744
13,RRIRFRPPRLPRPRPRPKSRPRP,-0.0938
14,RRIRLRPPRLPRPRPRPTGNPRP,-0.044
15,RRIRGRPPRLPRPRPRPQHVPRP,-0.12
16,RRIRIRPPRLPRPRPRPAANPRP,0.0204
17,RRIRDRPPRLPRPRPRPQFYPRP,-0.129
18,RRIRDRPPRLPRPRPRPPAGPRP,0.418
19,RRIRHRPPRLPRPRPRPLFLPRP,-0.612
20,RRIRDRPPRLPRPRPRPREAPRP,-0.0547
21,RRIRVRPPRLPRPRPRPWMFPRP,-0.673
22,RRIRMRPPRLPRPRPRPERPPRP,0.338
23,RRIRTRPPRLPRPRPRPNYKPRP,-0.823
24,RRIRERPPRLPRPRPRPQDWPRP,-0.206
25,RRIRHRPPRLPRPRPRPMGYPRP,-0.134

row,Sequence,shrunken log2 fold change
1,RRIRKRPPRLPRPRPRPVNSPRP,0.0157
2,RRIRGRPPRLPRPRPRPIPDPRP,0.238
3,RRIRERPPRLPRPRPRPLVRPRP,-0.192
4,RRIRARPPRLPRPRPRPMNYPRP,-0.182
5,RRIRWRPPRLPRPRPRPIFMPRP,-0.0259
6,RRIRWRPPRLPRPRPRPGRAPRP,0.71
7,RRIRNRPPRLPRPRPRPTIDPRP,-0.492
8,RRIRSRPPRLPRPRPRPTIFPRP,-0.377
9,RRIRSRPPRLPRPRPRPWSCPRP,0.194
10,RRIRSRPPRLPRPRPRPWGVPRP,-0.412
11,RRIRIRPPRLPRPRPRPPFYPRP,-0.438
12,RRIRCRPPRLPRPRPRPTGSPRP,0.0208
13,RRIRFRPPRLPRPRPRPWHDPRP,0.0237
14,RRIRSRPPRLPRPRPRPFLNPRP,-1.03
15,RRIRKRPPRLPRPRPRPTWSPRP,0.278
16,RRIRKRPPRLPRPRPRPNQWPRP,0.274
17,RRIRDRPPRLPRPRPRPIKCPRP,-0.0161
18,RRIRMRPPRLPRPRPRPIHLPRP,-0.209
19,RRIRYRPPRLPRPRPRPRGVPRP,0.0913
20,RRIRVRPPRLPRPRPRPNHCPRP,-0.181
21,RRIRERPPRLPRPRPRPYSMPRP,-1.48
22,RRIRPRPPRLPRPRPRPFVQPRP,-0.0832
23,RRIRHRPPRLPRPRPRPISWPRP,-0.245
24,RRIRTRPPRLPRPRPRPFLFPRP,-0.303
25,RRIRNRPPRLPRPRPRPNMRPRP,0.23
